Results: patent US20250186614A1, “COMPACT DRUG RESPONSIVE DOMAINS FOR REGULATION OF FUNCTION/ABUNDANCE AND DELIVERY OF POLYPEPTIDE PAYLOADS” (OBSIDIAN THERAPEUTICS, INC., priority 2022, published 2025)

Experiments:
[1] = system: Jurkat cells; test: Tacrolimus dose response of FKBP13-AcGFP-mCherry constructs stably transduced into Jurkat cells, GFP MFI by flow cytometry; assay type: cell-based; conditions: tacrolimus; for EC90 / Tacrolimus FC: Table 14; for Fold Change: Jurkat cells stably transduced; for Tacrolimus FC: fold change
Summary of the method: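 Jurkat E6-1 cells lentivirally transduced with FKBP13-AcGFP-mCherry constructs to 10-25% mCherry+ (day 5) were dosed with tacrolimus. GFP geometric MFI in mCherry+ cells was measured by flow cytometry and fitted to dose-response curves.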

[2] = system: Jurkat cells; test: Sirolimus (rapamycin) dose response of FKBP13 constructs stably transduced into Jurkat cells, flow cytometry; assay type: cell-based; conditions: for Fold Change: rapamycin (sirolimus), Jurkat cells stably transduced, Table 8; for EC90 / Rapamycin FC: rapamycin, Table 14; for Rapamycin FC: fold change; for EC50 (tacrolimus)/ EC50 (rapamycin): ratio of Table 7 and Table 8 EC50 values; for EC50 (tacrolimus)/ EC50 (rapamycin) / Fold change (tacrolimus)/ Fold change (rapamycin): Jurkat cells; for Fold change (tacrolimus)/ Fold change (rapamycin): ratio of Table 7 and Table 8 fold changes
Method: Normalized EC50 values were calculated from the mCherry normalized GFP MFI values, which accounted for any differences in mCherry intensity between samples.

[3] = read-out: Tacrolimus EC90 (Norm), normalized
[4] = normalized, read-out: Rapamycin EC90 (Norm)

Row | Molecule | Fold Change ([1]; Table 7) | Fold Change [2] | EC50 (tacrolimus)/ EC50 (rapamycin) [2] | Fold change (tacrolimus)/ Fold change (rapamycin) [2] | further results
1 | FKBP-157: FKBP13 DRD Q72R, T82W, Q84E, A117W, M54A; SEQ ID NO: 107 (protein, Description of sequence: FKBP13-AcGFP-mCherry Fusion; Construct Name: FKBP-157; FKBP13 DRD in Construct : FKBP13 (mutated to match FKBP12 active site Q72R T82W Q84E A117W) (DRD M54A)) HCPIKSRKGDVLHAHYTGKLEDGTEFDSSLPRNQPFVFSLGWGRVIKGWDQGLLGMCEGEKRKLVIPSELGYGERGWPPKIPGGATLVFEVELLKIER | 51.33 | 7.92 | 0.97 | 6.48 | EC90 [1, 3]: 1.32 µM; EC90 ([1]; read-out: Tacrolimus EC90): 1.15 µM; Tacrolimus FC [1]: 63.5; EC90 ([2]; read-out: Rapamycin EC90): 1.01 µM; Rapamycin FC [2]: 11.2; EC90 [2, 4]: 1.08 µM; difference between rapamycin and tacrolimus ([2]; ratio of EC50 and fold change, Table 9): largest difference between rapamycin and tacrolimus
2 | FKBP-117: FKBP13 DRD Q72R, Q84E, A117W, V85R; SEQ ID NO: 67 (protein, Description of sequence: FKBP13-AcGFP-mCherry Fusion; Construct Name: FKBP-117; FKBP13 DRD in Construct : FKBP13 (mutated to match FKBP12 active site Q72R Q84E A117W) (DRD V85R)) HCPIKSRKGDVLHMHYTGKLEDGTEFDSSLPRNQPFVFSLGTGERIKGWDQGLLGMCEGEKRKLVIPSELGYGERGWPPKIPGGATLVFEVELLKIER | 18.6 | 6.9 | 0.20 | 2.70 | EC90 [1, 3]: 0.0272 µM; EC90 ([1]; read-out: Tacrolimus EC90): 0.025 µM; Fold Change ([1]; Table 6): 15.75; FC ([1]; FIG. 35): 24.07; Peak ([1]; FIG. 35): 5193; FC ([1]; FIG. 36): 24.07; Peak ([1]; FIG. 36): 5193; FC ([1]; FIG. 37): 24.07; Peak ([1]; FIG. 37): 5193; FC ([1]; FIG. 38): 24.07; Peak ([1]; FIG. 38): 5193; Tacrolimus FC [1]: 21.2; EC90 ([2]; read-out: Rapamycin EC90): 0.17 µM; Rapamycin FC [2]: 7.6; EC90 [2, 4]: 0.171 µM
3 | FKBP-154: FKBP13 DRD Q72R, S79W, Q84W, A117W, M54A; SEQ ID NO: 104 (protein, Description of sequence: FKBP13-AcGFP-mCherry Fusion; Construct Name: FKBP-154; FKBP13 DRD in Construct : FKBP13 (mutated to match FKBP12 active site Q72R S79W Q84W A117W) (DRD M54A)) HCPIKSRKGDVLHAHYTGKLEDGTEFDSSLPRNQPFVFSLGTGEVIKGWDQGLLGMCEGEKRKLVIPSELGYGERGWPPKIPGGATLVFEVELLKIER | 14 | 3.9 | 0.35 | 3.59 | 
4 | FKBP-156: FKBP13 DRD Q72R, T82W, Q84W, A117W, M54A; SEQ ID NO: 106 (protein, Description of sequence: FKBP13-AcGFP-mCherry Fusion; Construct Name: FKBP-156; FKBP13 DRD in Construct : FKBP13 (mutated to match FKBP12 active site Q72R T82W Q84W A117W) (DRD M54A)) HCPIKSRKGDVLHAHYTGKLEDGTEFDSSLPRNQPFVFSLGWGWVIKGWDQGLLGMCEGEKRKLVIPSELGYGERGWPPKIPGGATLVFEVELLKIER | 18.36 | 8.77 | 0.56 | 2.09 | 
5 | FKBP-158: FKBP13 DRD Q72R, Q84E, A117W, M54A G111E; SEQ ID NO: 108 (protein, Description of sequence: FKBP13-AcGFP-mCherry Fusion; Construct Name: FKBP-158; FKBP13 DRD in Construct : FKBP13 (mutated to match FKBP12 active site Q72R Q84E A117W) (DRD M54A G111E)) HCPIKSRKGDVLHAHYTGKLEDGTEFDSSLPRNQPFVFSLGTGEVIKGWDQGLLGMCEGEKRKLVIPSELEYGERGWPPKIPGGATLVFEVELLKIER | 1.25 | 0.84 |  | 1.49 | 
6 | FKBP-159: FKBP13 DRD Q72R, Q84E, A117W, M54A G111Y; SEQ ID NO: 109 (protein, Description of sequence: FKBP13-AcGFP-mCherry Fusion; Construct Name: FKBP-159; FKBP13 DRD in Construct : FKBP13 (mutated to match FKBP12 active site Q72R Q84E A117W) (DRD M54A G111Y)) HCPIKSRKGDVLHAHYTGKLEDGTEFDSSLPRNQPFVFSLGTGEVIKGWDQGLLGMCEGEKRKLVIPSELYYGERGWPPKIPGGATLVFEVELLKIER | 1.06 | 0.81 | 1.22 | 1.31 | 
7 | FKBP-151: FKBP13 DRD Q72R, Q84R, A117W, M54A; SEQ ID NO: 101 (protein, Description of sequence: FKBP13-AcGFP-mCherry Fusion; Construct Name: FKBP-151; FKBP13 DRD in Construct : FKBP13 (mutated to match FKBP12 active site Q72R Q84R A117W) (DRD M54A)) HCPIKSRKGDVLHAHYTGKLEDGTEFDSSLPRNQPFVFSLGTGRVIKGWDQGLLGMCEGEKRKLVIPSELGYGERGWPPKIPGGATLVFEVELLKIER | 42.03 | 10.15 | 0.91 | 4.14 | 
8 | FKBP-152: FKBP13 DRD Q72R, Q84W, A117W, M54A; SEQ ID NO: 102 (protein, Description of sequence: FKBP13-AcGFP-mCherry Fusion; Construct Name: FKBP-152; FKBP13 DRD in Construct : FKBP13 (mutated to match FKBP12 active site Q72R Q84W A117W) (DRD M54A)) HCPIKSRKGDVLHAHYTGKLEDGTEFDSSLPRNQPFVFSLGTGWVIKGWDQGLLGMCEGEKRKLVIPSELGYGERGWPPKIPGGATLVFEVELLKIER | 30.34 | 23.17 | 0.55 | 1.31 | 
